This passage reports abundance fitness results from the Human Domainome abundance scans (Beltran et al. 2025).

First the molecules themselves.
B1: Protein C-ets-1, residues 55 to 135; numbered along this chain, P14921 (parent)
chain: GFTKEQQRLGIPKDPRQWTETHVRDWVMWAVNEFSLKGVDFQKFCMNGAALCALGKDCFLELAPDFVGDILWEHLEILQKE

± gives the uncertainty stated by the source.

Variants of B1 are the subject of the series. The series is described as follows: abundance fitness (aPCA) (normalised: wild type 0, dead -1); higher = more abundant; growth selection in yeast, the domain comes from the species named. As to conditions: Homo sapiens.
Consider GFTKEQQRLGIPKDPRQWTETHVRDWVMWAVNEFSLKGVDFQKFCMSGAALCALGKDCFLELAPDFVGDILWEHLEILQKE [N47S], for which the abundance fitness was -0.003 ± 0.034.
To GFTKEQQRLGIPKDPRQWTETHVRDWVMWAVNEFSLKGVDFQKFCMNGAALCALGKDCFLALAPDFVGDILWEHLEILQKE [E61A] belongs -0.012 ± 0.032; to GFTKEQQRLGIPKDPRQWTETHVRDWVMWAVNEFSLKGVDFQKFCMNGAALMALGKDCFLELAPDFVGDILWEHLEILQKE [C52M], -0.079 ± 0.04; to GFTKEQQRLGIPKDPRQWTETHVRDWVMWAVNEFSLKGVDFQKFCMNGAALWALGKDCFLELAPDFVGDILWEHLEILQKE [C52W], -0.641 ± 0.046.
To GFTKEQQRLGIPKDPRQWTETHVRDWVMWAVNEFSLKGVDFQKFCMNGAALAALGKDCFLELAPDFVGDILWEHLEILQKE [C52A] belongs -0.303 ± 0.029; to GFTKEQQRLGIPKDPRQWTETHVRDWVRWAVNEFSLKGVDFQKFCMNGAALCALGKDCFLELAPDFVGDILWEHLEILQKE [M28R], -0.004 ± 0.029.
Turning to GFTKEQQRLGIPKDPRQWTETHVRDWVMWAVNEFSLKGVDFQKFCMNGAALCALGKDCFLELAPDFVHDILWEHLEILQKE [G68H], the abundance fitness was -0.541 ± 0.15.
Turning to GFTKEQQRLIIPKDPRQWTETHVRDWVMWAVNEFSLKGVDFQKFCMNGAALCALGKDCFLELAPDFVGDILWEHLEILQKE [G10I], the abundance fitness is -0.187 ± 0.096.
To GFTKEQQRLGIPKDPRQWTETHVRDWVMWAVNEFSLKGVDFQKFCMNGAALCALGKDCFLELAPDFVGDRLWEHLEILQKE [I70R] belongs -0.036 ± 0.025; to GFTKEQQRLGIPKDPRQWTETHVRDWVMWAVNEFSLKGVDFQKFCMNGAALCALGKDCFLELAPDFVGDILDEHLEILQKE [W72D], -1.07 ± 0.38.
As for GFTKEQQRLGIPKDPRQWTETHVRDWVMWAVNEFSLKGVDFQKFCMNGAAYCALGKDCFLELAPDFVGDILWEHLEILQKE [L51Y], the abundance fitness was -0.94 ± 0.21.
To GFTKEQQRLGIPKDPRQWTETHVRDWVMWAVNEFSLKGVDFQKFCMNGAAHCALGKDCFLELAPDFVGDILWEHLEILQKE [L51H] belongs -0.813 ± 0.14; to GFTKEQQRLGIPKDPRQWTETHVRDWVMWAVNEFSLKGVDFQKFCMNGAAPCALGKDCFLELAPDFVGDILWEHLEILQKE [L51P], -0.794 ± 0.059; to GFTKEQQRLGIPKDPRQWTETHVRDWVMWAVNEFSLKGQDFQKFCMNGAALCALGKDCFLELAPDFVGDILWEHLEILQKE [V39Q], -0.683 ± 0.12.
As for GFTKEQQRLGIPKDPRQWTETHVRDWVMWAVNEFSLKGVDFQKFCMNGAALCALGKDCFLELCPDFVGDILWEHLEILQKE [A63C], the abundance fitness was 0.02 ± 0.055.
GFTKEQQRLGIPKDPRQWTETHVRDWVMWAVNEFSEKGVDFQKFCMNGAALCALGKDCFLELAPDFVGDILWEHLEILQKE [L36E]: the abundance fitness was -1 ± 0.2.
To GFTKEQQRLGIPKDPRQWTETHVRDWVMWAVNEFSTKGVDFQKFCMNGAALCALGKDCFLELAPDFVGDILWEHLEILQKE [L36T] belongs -0.697 ± 0.081; to GFTKEQQRLGIPKDPRQWTETHVRDWVMWAVNEFSLKGVDFQKFCMNGAALCALGKDCFLELAPDFVGDILWEHLEIHQKE [L78H], -0.553 ± 0.1.
Regarding GFTKEQQRLGIPKDPRQWTETHVRDWVMWAVNEFSLKGVDFQKFCMNGAALCALGKDCFLELAPDFVGDILWEHLEIRQKE [L78R], the abundance fitness is -0.583 ± 0.035.
On to GFTKEQQRLGIPKDPRQWTETHVRDWVMWAVNEFSLKGVDFQKFCMNGAALCALGKDCFLELAPDFVGDILWEHMEILQKE [L75M], for which the abundance fitness is -0.169 ± 0.055.
In the case of GFTKEQQRLGIPKDPRQWTETHVRDWVMWAVNEFSLKGVDFQKFCMNGAALCALGKDCFLELAPDFVGDILWEHNEILQKE [L75N], the abundance fitness was -0.697 ± 0.16.
With GFTKEQQRLGIPKDPRQWTETNVRDWVMWAVNEFSLKGVDFQKFCMNGAALCALGKDCFLELAPDFVGDILWEHLEILQKE [H22N], the abundance fitness was found to be 0.023 ± 0.11.
To GFTKEQQRLGIPKDPRQWTETCVRDWVMWAVNEFSLKGVDFQKFCMNGAALCALGKDCFLELAPDFVGDILWEHLEILQKE [H22C] belongs -0.801 ± 0.12; to GFTKEQQRLGIPKDPRQWTETHVRDWVMWLVNEFSLKGVDFQKFCMNGAALCALGKDCFLELAPDFVGDILWEHLEILQKE [A30L], -0.187 ± 0.036; to GFTKEQQRLGIPKDPRQWTNTHVRDWVMWAVNEFSLKGVDFQKFCMNGAALCALGKDCFLELAPDFVGDILWEHLEILQKE [E20N], -0.114 ± 0.072.
To GFTKEQQRLGIPKDPCQWTETHVRDWVMWAVNEFSLKGVDFQKFCMNGAALCALGKDCFLELAPDFVGDILWEHLEILQKE [R16C] belongs -0.04 ± 0.082.
On to GFTKEQQRLGIPKDPRQWTETHVRDWVMWAVNEFSLKGVDFQKFCMNGAALCALGKDCFLELAPIFVGDILWEHLEILQKE [D65I], for which the abundance fitness was -0.008 ± 0.11.
To GFTKEQQRLGIPKDPRQWTETHVRDWVMWAVNEFSLKGVDFQKFCMNCAALCALGKDCFLELAPDFVGDILWEHLEILQKE [G48C] belongs -0.884 ± 0.13; to GFTKEQQRLGIPKDPRQWTETHVRDWVMWAVNEFSLKGVDFQKFCMNHAALCALGKDCFLELAPDFVGDILWEHLEILQKE [G48H], -0.94 ± 0.47; to GFTKEQQRLGIPKDPRQWTETHVRDWVMWAVNEFSLKGVDFQKFCMNGAALCALGKDCFLELAPDFVGDILWEHLAILQKE [E76A], -0.043 ± 0.044.
To GFTKEQQRLGIPKDPRQWTETHVRDWVMWAVNEFSLKGVDFQKFCMNGAALCALGKDCFLELAPDFVGFILWEHLEILQKE [D69F] belongs -0.301 ± 0.066; to GFTKEQQRLGIPKDPRQWTETHVRDWVMWAVNEFSLKGVDFQKFCMNGAALCALGKDCFLELAPDFVGSILWEHLEILQKE [D69S], -0.053 ± 0.035; to GFTKEQQRLGIPKDPRQWTETHVRDWVMWAVNEFSLKGVDFQKFCTNGAALCALGKDCFLELAPDFVGDILWEHLEILQKE [M46T], -0.477 ± 0.058.
To GFTKEQQRNGIPKDPRQWTETHVRDWVMWAVNEFSLKGVDFQKFCMNGAALCALGKDCFLELAPDFVGDILWEHLEILQKE [L9N] belongs -0.137 ± 0.11.
